# Results taken from patent US20140377253A1.
# Columns and labels:
# FcgRIIB = FcgRIIB (UniProt P31994); experiment: FACS
# FcgRIIIA = FcgRIIIA (UniProt P08637); experiment: FACS
# Chain of FcgRIIIA (P08637 17-254): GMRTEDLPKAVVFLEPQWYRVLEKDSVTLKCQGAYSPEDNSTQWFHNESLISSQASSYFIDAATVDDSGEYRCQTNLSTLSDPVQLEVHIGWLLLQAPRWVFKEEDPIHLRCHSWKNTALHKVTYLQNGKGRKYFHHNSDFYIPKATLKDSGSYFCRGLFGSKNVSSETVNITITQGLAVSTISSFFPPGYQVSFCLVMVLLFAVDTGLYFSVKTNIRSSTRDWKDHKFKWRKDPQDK
# Chain of FcgRIIB (P31994 43-310): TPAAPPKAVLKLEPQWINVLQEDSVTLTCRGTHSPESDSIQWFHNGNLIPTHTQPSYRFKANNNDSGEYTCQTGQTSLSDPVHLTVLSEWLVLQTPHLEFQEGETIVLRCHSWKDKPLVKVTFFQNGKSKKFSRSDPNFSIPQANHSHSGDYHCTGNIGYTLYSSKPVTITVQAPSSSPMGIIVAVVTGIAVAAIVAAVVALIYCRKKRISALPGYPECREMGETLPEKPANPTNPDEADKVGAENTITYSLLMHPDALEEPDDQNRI
EC50 (FcgRIIB),EC50 (FcgRIIIA),Substance
1.85 nM,2.51 nM,L328F
2 nM,3.67 nM,N297A
0.64 nM,1.24 nM,S267E
0.32 nM,2.31 nM,SELF
